Source: the supplement of paper PMC7877785
± gives the uncertainty stated by the source.

Experiment: self-splicing fitness, log relative to wild type (ln ratio); higher = more splicing; Tetrahymena group I intron in knt gene, E. coli kanamycin selection, DiMSum; sequences stand for … in CUCUCU…GGAGGGAAAAGUUAUCAGGCAUGCACCUGGUAGCUAGUCUUUAAACCAAUAGAUUGCAUCGGUUUAAAAGGCAAGACCGUCAAAUUGCGGGAAAGGGGUCAACAGCCGUUCAGUACCAAGUCUCAGGGGAAACUUUGAGAUGGCCUUGCAAAGGGUAUGGUAAUAAGCUGACGGACAUGGUCCUAACCACGCAGCCAAGUCCUAAGUCAACAGAUCUUCUGUUGAUAUGGAUGCAGUUCACAGACUAAAUGUCGGUCGGGGAAGAUGUAUUCUUCUCAUAAGAUAUAGUCGGACCUCUCCUUAAUGGGAGCUAGCGGAUGAAGUGAUGCAACACUGGAGCCGCUGGGAACUAAUUUGUAUGCGAAAGUAUAUUGAUUAGUUUUGGAGUACUCGUGGUCG
How it was run: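 Fitness was computed with DiMSum as the error-weighted combination of replicate fold changes, kanamycin versus none, each normalised to wild type. The library randomised all eight intron nucleotides of the P1ex region, with the intron placed in the knt kanamycin-resistance gene on pET-22b(+) in E. coli BL21(DE3). Six replicate transformations were grown overnight at 37°C or 30°C on LB agar with or without 25 μg/mL kanamycin, plus 100 μg/mL carbenicillin, 50 μM IPTG and 0.2% rhamnose. Pooled colonies were amplicon-sequenced on an Illumina HiSeq 2500.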

| Sequence | self-splicing fitness (ln) (30 °C) | self-splicing fitness (ln) (37 °C) |
| --- | --- | --- |
| GGUGAGCAAUAUUACGCUGG | -2.87 ± 0.19 | -1.12 ± 0.16 |
| GCGCAGCAAUAUUACGCGGC |  | -3.69 ± 0.37 |
| UGUUAGCAAUAUUACGGGGG | -3.91 ± 0.35 | -1.94 ± 0.36 |
| CCACAGCAAUAUUACGUACG | -0.647 ± 0.047 | -0.02 ± 0.063 |
| CGAAAGCAAUAUUACGAAGU | -3.07 ± 0.15 | -1.84 ± 0.19 |
| AGAUAGCAAUAUUACGCUUG | -2.48 ± 0.12 | -0.783 ± 0.13 |
| CGGAAGCAAUAUUACGUUAG | -1.41 ± 0.061 | -0.697 ± 0.077 |
| GACAAGCAAUAUUACGUUCC | -3.15 ± 0.24 | -2.8 ± 0.31 |
| UAAGAGCAAUAUUACGUGUC | -3.09 ± 0.21 | -0.977 ± 0.17 |
| ACUGAGCAAUAUUACGGGCA | -2.07 ± 0.14 | -1.08 ± 0.14 |
| AGAUAGCAAUAUUACGAAGG | -2.57 ± 0.2 |  |
| UCGGAGCAAUAUUACGAGUG | -2.47 ± 0.18 | -2.48 ± 0.19 |
| GAGUAGCAAUAUUACGUUCG | -2.12 ± 0.15 | -0.913 ± 0.15 |
| UGCGAGCAAUAUUACGGUCU | -2.12 ± 0.15 | -1.45 ± 0.25 |
| GCAAAGCAAUAUUACGAAAU | -2.4 ± 0.12 | -1.36 ± 0.11 |
| CCAAAGCAAUAUUACGACGA | -3.11 ± 0.29 | -0.0538 ± 0.26 |
| UAUAAGCAAUAUUACGUGCC | -3.05 ± 0.22 | -1.44 ± 0.17 |
| ACUUAGCAAUAUUACGCCAG | -2.16 ± 0.15 | -0.941 ± 0.17 |
| AUUAAGCAAUAUUACGCCCA | -1.11 ± 0.19 | -0.42 ± 0.29 |

| Sequence | self-splicing fitness (ln) (30 °C) | self-splicing fitness (ln) (37 °C) |
| --- | --- | --- |
| GCCCAGCAAUAUUACGCUAU | -0.826 ± 0.082 | -0.309 ± 0.086 |
| CAGAAGCAAUAUUACGAUAA | -2.32 ± 0.17 | -2.02 ± 0.26 |
| UGGCAGCAAUAUUACGUAUC | -3.85 ± 0.31 | -1.82 ± 0.25 |
| GUUAAGCAAUAUUACGUAUC | -1.79 ± 0.1 | -1.46 ± 0.14 |
| CAGCAGCAAUAUUACGCUCA | -0.65 ± 0.085 | -0.0891 ± 0.11 |
| UACUAGCAAUAUUACGUUCA | -0.586 ± 0.08 | -0.193 ± 0.09 |
| GACCAGCAAUAUUACGACUA | -0.158 ± 0.056 | -0.0882 ± 0.062 |
| UGCUAGCAAUAUUACGUCGG | -2.68 ± 0.25 | -0.202 ± 0.23 |
| ACGCAGCAAUAUUACGAAGA |  | -1.43 ± 0.26 |
| GCGAAGCAAUAUUACGAUGA | -1.1 ± 0.11 | 0.105 ± 0.098 |
| UCGUAGCAAUAUUACGAGUU | -3.76 ± 0.25 | -2.5 ± 0.2 |
| UCGAAGCAAUAUUACGCAGC | -2.71 ± 0.27 | -2.18 ± 0.23 |
| AGGCAGCAAUAUUACGUCAC | -1.74 ± 0.13 | -1.25 ± 0.28 |
| CAUUAGCAAUAUUACGCGCG | 0.0331 ± 0.12 | 0.0206 ± 0.13 |
| GAGGAGCAAUAUUACGCGCG | -2.81 ± 0.28 | -0.781 ± 0.39 |
| GCAUAGCAAUAUUACGCACG | -2 ± 0.17 | -2.05 ± 0.22 |
| UCCCAGCAAUAUUACGGUUU | -1.23 ± 0.061 | -0.274 ± 0.076 |
| CCACAGCAAUAUUACGAUUU | -4.23 ± 0.19 | -3.01 ± 0.17 |
| AAUUAGCAAUAUUACGUUCG | -1.16 ± 0.12 | -0.728 ± 0.18 |
